The source of these data is the RNAGym collection of RNA variant scans (doi:10.7554/elife.90254).

The labels stand for the following.
B1: LINE1-full (parent)
chain: UACGUAGGUGGUUUUCCCCUGAUAGUGCUAAGGGGGCCUGGAAGUUUGGACUGGGCAGAGCUCAACACAGCGUGGCAAAGUGGCUGUGGCUAGACUGCCUCUCUGGAUUCCUCGUCACUCAGCAGGGCAUCUCUGAGAGAAAUGCC

The variants in the data set derive from B1. As to the kind of experiment: self-cleavage, relative activity (ratio to wild type); higher = more cleavage; in vitro, sequencing; the parent is a self-cleaving ribozyme.
Take U15C U46G: the self-cleavage was 1.15. In the case of U15C U46A it was 1.41; in that of U15C U119A, 1.5. Take C17U A67G: the self-cleavage stood at 0.34.

For U15C U85A, the self-cleavage was 0.1. As to C17U A77U, the self-cleavage amounted to 0.36. With C17A U108C, the self-cleavage came to 1.96. In the case of C16U A136U it was 1.29. In the case of U15C G80A, the self-cleavage came to 1.82. For the variant U15C G41U, the self-cleavage is 0.57. To U15C C120A belongs 1.31; to U15C C145U, 1.47.

C16U A117G: the self-cleavage came out at 0.57.

Turning to C17U U46A, the self-cleavage amounted to 0.72. Consider U15C U47A, for which the self-cleavage was found to be 1.42. As for U15C U47C, the self-cleavage was determined as 1.64. Regarding C17A A22G, the self-cleavage is 2.19.

As to C16U U100A, the self-cleavage worked out at 0.32. To C16U A77U belongs 1.4; to U15C G58A, 0.11; to U15C G144U, 1.61. Consider U15C G93A, for which the self-cleavage was 0.07. As to C16U C38U, the self-cleavage was found to be 1.06.

For the variant C17U A64G, the self-cleavage turned out to be 0.22. In the case of C16U U134C, the self-cleavage was 2.6. On to C18A U81C, for which the self-cleavage came out at 1.31. In the case of C17U A65G it was 0.18; in that of C17U A65U, 0.07; in that of U15C U23G, 1.31. Take C16U U96A: the self-cleavage is 0.03.

Take C16U U96C: the self-cleavage stood at 0.11. As for U15C G126A, the self-cleavage turned out to be 1.41. To C18A C37G belongs 0.99. As to U15C U81A, the self-cleavage came out at 2.14. In the case of U15C U81C, the self-cleavage was 1.43. Take C16U G40U: the self-cleavage was determined as 0.6. For the variant C17U A59G, the self-cleavage came out at 0.17. C17G A141G: the self-cleavage is 0.47.

Take C16U A138G: the self-cleavage came to 2.06. For the variant U15C U104G, the self-cleavage was 1.29. To C17A A43G belongs 0.89.

With C17G U91C, the self-cleavage was found to be 0.38. On to U15C G135U, for which the self-cleavage came to 1.21. C17U A140U: the self-cleavage is 1.11. On to U15C U73C, for which the self-cleavage was 1.8. Take U15C U73A: the self-cleavage was found to be 1.68. In the case of C16A U104A it was 0.47; in that of U15C G40A, 0.3; in that of U15G U96C, 0. Take U15G U96A: the self-cleavage worked out at 0.16. As to C16A U46C, the self-cleavage amounted to 0.91. Take C17U U26A: the self-cleavage was 0.85.

C17A U115C: the self-cleavage stood at 0.71. For the variant C16U U132C, the self-cleavage was found to be 1.12.

Regarding C18A A22G, the self-cleavage turned out to be 0.7. Take U15G A138G: the self-cleavage turned out to be 0.53.

As to U15G A50C, the self-cleavage came out at 1.37.

With C16U U91C, the self-cleavage was found to be 0.74. As for C16A A142G, the self-cleavage was 0.86. As for C18A U96C, the self-cleavage was 0.22.

As for C18A U45A, the self-cleavage is 1.06. Take C16A A121G: the self-cleavage amounted to 0.53. For the variant U15C U20C, the self-cleavage was 1.33. In the case of U15C U20A it was 1.12; in that of U15C U20G, 0.52; in that of C18A A138U, 1.66. For C18A A138G, the self-cleavage worked out at 2.26. As to C17G U102A, the self-cleavage is 1.38.

Turning to U15G A141G, the self-cleavage was 1. For the variant U15C C116U, the self-cleavage amounted to 0.62.

U15C G60A: the self-cleavage was 0.04.

With U15G U104C, the self-cleavage amounted to 0.89. To C18A G58U belongs 0.07; to C18A A24G, 1.11; to U15C U26C, 1.33.

As to C18A U73G, the self-cleavage was 1.01. On to C16A A138G, for which the self-cleavage was determined as 1.65. As to C17U U143C, the self-cleavage is 1.03. For the variant C17U U143A, the self-cleavage came out at 0.85.

For U15G U29C, the self-cleavage worked out at 1.05. For C17U U104C, the self-cleavage was 1.33. Regarding C18A U115C, the self-cleavage was determined as 1.85. For U15C G32U, the self-cleavage was 1.15. As for C16A U81A, the self-cleavage is 0.75. With C18A U104A, the self-cleavage stood at 0.85. Regarding C17U U87C, the self-cleavage turned out to be 0.23.

On to C17U U87A, for which the self-cleavage worked out at 0.11. For the variant C16U A140U, the self-cleavage worked out at 1.78. As for U15C G97A, the self-cleavage turned out to be 0.06. In the case of U15G U119A it was 1.01; in that of C17U A121G, 1.53; in that of C17G U108C, 0.81.

For the variant U15C G88A, the self-cleavage came to 0.06. For the variant C18A A42G, the self-cleavage amounted to 1.45.

As to U15C U96A, the self-cleavage was determined as 0.1. As for U15C U96C, the self-cleavage was 0.23. In the case of U15G U108C, the self-cleavage was determined as 1.06.

As for C16A, the self-cleavage was 0.96. As for C16U, the self-cleavage turned out to be 1.12. In the case of C16A U115C, the self-cleavage came to 0.41.

On to U15C G86A, for which the self-cleavage was 0.06. Consider U15C U100A, for which the self-cleavage came to 0.62. As to U15C U100G, the self-cleavage is 1.84. In the case of C17U U39C it was 0.92; in that of U15C U134C, 1.43; in that of C17U U47A, 1.34. Consider C16A U47G, for which the self-cleavage came out at 0.75. Regarding C16U A67G, the self-cleavage came to 0.45. As for C16U U20A, the self-cleavage worked out at 1.02.

For the variant U15G A124U, the self-cleavage worked out at 0.58. Turning to U15C G34U, the self-cleavage came out at 1.65. Consider U15C G34A, for which the self-cleavage came out at 0.78. With U15C G106A, the self-cleavage turned out to be 1.26. For U15C G106C, the self-cleavage amounted to 1.03. Turning to U15C C131U, the self-cleavage stood at 2.51. To U15C C131A belongs 1.74; to C16A U20A, 1.64; to U15C U62G, 0.15. Take C18A: the self-cleavage was found to be 1.39. For the variant U15G U132C, the self-cleavage stood at 1.81. Consider U15C U39C, for which the self-cleavage worked out at 1.51. In the case of C16A A136G, the self-cleavage amounted to 0.57. Turning to U15C G54A, the self-cleavage amounted to 0.74. Take U15G A78U: the self-cleavage turned out to be 2.03. Turning to C16A A67G, the self-cleavage is 1.02. In the case of U15C U130C it was 1.19; in that of C16U U104C, 1.03. To U15C G49U belongs 0.94; to U15C G53A, 1.34; to C17A A67G, 0.56.

C16A U52C: the self-cleavage is 0.69. Turning to U15G U39A, the self-cleavage turned out to be 1.19. In the case of U15C G48A, the self-cleavage is 1.41. With U15C U112A, the self-cleavage was found to be 1.64.

Turning to U15C U112C, the self-cleavage was 1.37. For the variant C17A U46C, the self-cleavage was 1.42.

For the variant C17U U62C, the self-cleavage is 0.04.

Regarding U15C C123U, the self-cleavage was determined as 1.72. To U15C G27A belongs 1.1; to U15G U46C, 0.59; to U15C U115C, 1.68. C16G C71G: the self-cleavage came to 0.42.

Take U15G G126C: the self-cleavage stood at 1.19. In the case of C16U A92G, the self-cleavage was 0.2. As for C16U A92U, the self-cleavage is 0.58. With C17U A50G, the self-cleavage was determined as 0.59. Take U15C U132A: the self-cleavage came out at 1.89. U15C U132C: the self-cleavage amounted to 1.47. In the case of C17U G49U, the self-cleavage amounted to 1.69. Turning to U15G A31G, the self-cleavage was found to be 0.79. Take C17U A69G: the self-cleavage was found to be 0.4. U15G U47A: the self-cleavage is 1.16. To C17U A138U belongs 1.29; to C17U A138G, 1.06. As for C17U A42G, the self-cleavage turned out to be 1.36.

Take U15C U143C: the self-cleavage worked out at 1.29. In the case of C17U A79U, the self-cleavage came to 1.1.

Regarding U15C U102A, the self-cleavage worked out at 0.19. Turning to U15C U102G, the self-cleavage was found to be 0.8. Take U15G A65G: the self-cleavage turned out to be 0.1. Turning to C17U U115C, the self-cleavage was found to be 1.48.

For the variant C16U U108C, the self-cleavage was 1.72. On to C17U A22U, for which the self-cleavage worked out at 1.21. Consider U15C G21A, for which the self-cleavage is 1.11. In the case of U15C U87C it was 0.33.

For the variant C16U A124G, the self-cleavage worked out at 0.58. Take U15C C146G: the self-cleavage was 1.45.
